Assay [1] deals with T1, bio-LAG3-mFc (human, UniProt P18627 23-450, biotin-labelled).
T1 construct: also called hLAG-3
T1 sequence (looked up): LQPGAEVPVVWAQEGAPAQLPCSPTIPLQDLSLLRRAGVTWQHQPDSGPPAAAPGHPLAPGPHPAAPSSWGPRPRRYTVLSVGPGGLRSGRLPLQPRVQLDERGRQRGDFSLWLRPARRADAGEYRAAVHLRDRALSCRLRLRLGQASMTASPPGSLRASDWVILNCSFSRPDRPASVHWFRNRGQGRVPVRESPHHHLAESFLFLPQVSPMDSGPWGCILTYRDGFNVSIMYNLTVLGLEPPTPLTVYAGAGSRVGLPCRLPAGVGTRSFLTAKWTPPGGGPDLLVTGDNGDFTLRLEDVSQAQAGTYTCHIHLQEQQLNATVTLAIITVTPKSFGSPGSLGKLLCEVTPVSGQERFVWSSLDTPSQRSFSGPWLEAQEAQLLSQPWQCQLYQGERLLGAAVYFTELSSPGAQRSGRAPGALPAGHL
As to the kind of experiment: blocking ELISA, LAG-3 on Daudi cells. Background: In an ELISA, binding on a coated surface is turned into a signal by an enzyme label.

In assay [2] the target is T1, bio-LAG3-mFc. Put plainly: blocking ELISA on fixed Daudi cells: antibody titrated against bio-LAG3-mFc binding to Daudi cells (MHC II), streptavidin-HRP, OD450 (Example 4) [panel b].
The target of assay [3] is T2, human LAG-3-his (human, UniProt P18627 23-422).
T2 construct: range 23-422; also called hLAG-3-his; hLAG-3
T2 sequence: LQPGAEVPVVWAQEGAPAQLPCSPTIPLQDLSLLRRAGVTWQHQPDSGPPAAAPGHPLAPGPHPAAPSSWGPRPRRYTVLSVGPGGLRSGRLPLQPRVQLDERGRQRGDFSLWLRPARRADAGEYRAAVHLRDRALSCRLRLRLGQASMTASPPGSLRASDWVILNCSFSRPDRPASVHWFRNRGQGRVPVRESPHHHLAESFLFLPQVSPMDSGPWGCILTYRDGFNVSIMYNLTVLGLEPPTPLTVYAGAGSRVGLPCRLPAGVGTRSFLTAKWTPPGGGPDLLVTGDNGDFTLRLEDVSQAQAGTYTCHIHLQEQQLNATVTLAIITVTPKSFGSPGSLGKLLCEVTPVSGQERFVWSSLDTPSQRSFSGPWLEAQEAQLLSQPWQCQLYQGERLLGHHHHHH
As to the kind of experiment: ELISA on hLAG-3. The method, then:
(§1) After discarding the liquid, a blocking solution of 5% skimmed milk (Bright skimmed milk powder) diluted with PBS was added at 230 μl per well, followed by incubating at 37° C. for 3 hours or 4° C. overnight (16-18 hours) for blocking. Subsequently, the blocking solution was discarded, and the micropiate was washed 5 times with PBST buffer (pH 7.4 PBS containing 0.05% tweeen-20). Then 50 μl/well of the supernatant (containing the antibody to be tested) or a starting concentration of 10 μg/ml of the antibody to be tested, which was diluted 5 times in gradient, was added, followed by incubating the mixture for 1 hour at 37° C. […] After washing the microplate 5 times with PBST, 50 μl/well TIMB chromogenic substrate (KPL, Cat. No.: 52-00-03) was added, and then incubated for […] at room temperature. Finally, 50 μl/well of 1 M H₂SO₄ was added to stop the reaction. The absorbance value at 450 nm was read by […] GO microplate reader (ThermoFisher, Cat. No.: 51119200). The clones with high affinity were selected according to the OD value or the EC₅₀ value was calculated (for antibodies with known concentrations).

For assay [4], the target named is T2, human LAG-3-his. Put plainly: ELISA on coated human LAG-3-his, anti-human HRP, OD450 (Example 3) [panel a]. As to the method: as §1
For assay [5], the target named is T2, human LAG-3-his. Put plainly: ELISA on hLAG-3. As to the method:
as §1
This is another data set of the same source.

For assay [6], the target named is T1, bio-LAG3-mFc. Put plainly: blocking ELISA, LAG-3 on Daudi cells. The source holds these as a separate data set.
The target in assay [7] is T2, human LAG-3-his. As to the kind of experiment: ELISA on coated human LAG-3, OD450 (Example 3, Example 13) [panel a].
The target in assay [8] is T3, human PD-1 (hFc/his tag) (human, UniProt Q15116 21-167).
T3 construct: range 21-167; not shown: hFc or his tag
As to the kind of experiment: ELISA on human PD-1, sample kept at 37 C for 5 days.

The target in assay [9] is T2, human LAG-3-his. Put plainly: ELISA on human LAG-3.
Assay [10] addresses T3, human PD-1 (hFc/his tag). As to the kind of experiment: ELISA on human PD-1.
Assay [11] addresses T2, human LAG-3-his. As to the kind of experiment: ELISA on human LAG3, sample kept at 37 C for 10 days.
For assay [12], the target named is T3, human PD-1 (hFc/his tag). Put plainly: ELISA on human PD-1, sample stored at -80 C for 60 days.
Assay [13] addresses T3, human PD-1 (hFc/his tag). Put plainly: blocking of PD-1 binding to PD-L1.
Assay [14] has as its target T2, human LAG-3-his. Put plainly: ELISA on human LAG3, sample stored at -80 C for 60 days.
The target of assay [15] is T1, bio-LAG3-mFc. Put plainly: blocking of LAG3 binding to Daudi cells. The method, then:
The Daudi cell line (ATCC, CCL-213) was expanded and seeded into 96-well microplate at a density of 2×10⁵ cells/well, and then centrifuged at 1600 rpm for 10 min; thereafter the cells were fixed with 100 μl/well of a fixative solution for immunostaining (Shanghai Beyotime Biotechnology Co., Ltd., Cat. No.: P0098) for half an hour at room temperature. After washing with PBS (BasalMedia Biology, Cat. No.: B320) once, 5% milk was added with 230 μl per well, and the microplate was incubated for 2 hours at 37° C. for blocking, then was washed three times with PBST. […] The microplate was then incubated for 1 hour at 37° C. and washed 5 times with PBST. 50 μl/well of 1:1000 diluted streptavidin-HRP secondary antibody (GenScript, Cat. No.: M00091) was added to the microplate and incubated for 1 hour at 37° C. After washing the microplate 5 times with PBST, 50 μl/well TMB (Surmodic, Cat. No.: TTMB-1000-01) was added to the microplate for color development, and 50 μl/well 1M H₂SO₄ was added to stop the reaction. The microplate was then read by a microplate reader (MuitiskanGo Thermo, model 511919200), and the data were analyzed using GraphPad prism 5.

Assay [16] has as its target T3, human PD-1 (hFc/his tag). Put plainly: ELISA on coated human PD-1, OD450 (Example 13) [panel b].
For assay [17], the target named is T2, human LAG-3-his. As to the kind of experiment: ELISA on human LAG3, sample stored at -80 C for 60 days; sample stored at -80 C for 60 days (reference value in brackets).
Assay [18] deals with T2, human LAG-3-his. Put plainly: ELISA on human LAG3, sample kept at 37 C for 5 days.
For another assay, the target named is T4, Bio-LAG-his (UniProt P18627 23-450, biotin-labeled).
T4 construct: Detection reagent of the double-sandwich ELISA; also called biotin-labeled LAG-3-his (ACROBiosystems); not shown: his tag of the bought product
T4 sequence (looked up): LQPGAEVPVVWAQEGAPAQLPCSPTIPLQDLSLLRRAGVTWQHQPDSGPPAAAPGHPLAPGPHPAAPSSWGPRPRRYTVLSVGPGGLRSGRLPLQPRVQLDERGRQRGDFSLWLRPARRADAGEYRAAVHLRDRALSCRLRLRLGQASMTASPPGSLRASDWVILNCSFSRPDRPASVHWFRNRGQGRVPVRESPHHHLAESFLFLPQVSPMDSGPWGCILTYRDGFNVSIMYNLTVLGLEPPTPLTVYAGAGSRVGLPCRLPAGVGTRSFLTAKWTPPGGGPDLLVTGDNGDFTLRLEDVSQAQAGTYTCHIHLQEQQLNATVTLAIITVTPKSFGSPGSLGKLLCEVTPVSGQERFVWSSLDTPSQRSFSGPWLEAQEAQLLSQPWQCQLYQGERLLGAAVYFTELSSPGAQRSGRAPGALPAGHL
Put plainly: double-sandwich ELISA: plate coated with PD-1, bispecific titrated, detected with Bio-LAG-his. As to the method: Finally, 50 μl/well of 1M H₂SO₄ was added to stop the reaction.

The target of assay [19] is T3, human PD-1 (hFc/his tag). As to the kind of experiment: ELISA on human PD-1, sample kept at 37 C for 10 days.

T3 sequence (Q15116 21-167, form in doubt): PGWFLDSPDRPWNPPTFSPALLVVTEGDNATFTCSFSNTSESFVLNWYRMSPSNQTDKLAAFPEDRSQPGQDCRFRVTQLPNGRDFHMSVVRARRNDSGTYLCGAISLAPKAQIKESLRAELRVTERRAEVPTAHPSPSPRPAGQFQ

B1: chimeric antibody mab23c (antibody, human IgG4 S228P, kappa, V domains shown)
VH: QVQLQQSGAELVRPGASVTLSCKASGYTFTDYEMHWVKQTPVHGLEWIGGIDPETEGIAYNQKFRGKAILTADKSSITAYMELRSLTSEDSAVYYCTNSNYYGGREAWFAYWGQGTLVTVSG
VL: DIQMIQSPSSLSASLGERVSLTCRASQDIGSSLNWLQQEPDGTIKRLIYATSSLDSGVPKRFSGSRSGSDYSLTISSLESEDFVDYYCLQYVTSPLTFGAGTKLELKR
notes: hIgG4
As to B1, the IC50 with bio-LAG3-mFc [1] is 2.3 nM; with bio-LAG3-mFc [6] it was 1.55 nM. In addition, the “fold better IC50 than Ref” value with bio-LAG3-mFc [1] is about 4 fold. In the assay with bio-LAG3-mFc [2], the “IC50 (read off the curve)” value was about 2 nM. Besides, the EC50 stood at 0.166 nM in the assay with human LAG-3-his [3] and 0.41 nM with human LAG-3-his [5]. Also, in the assay with human LAG-3-his [4], the “EC50 (read off the curve)” value was about 0.4 nM.

B2: bispecific antibody (SBody) LB2371 (bispecific antibody, human IgG4 S228P, kappa)
light: EIVLTQSPATLSLSPGERATLSCRASKGVSTSGYSYLHWYQQKPGQAPRLLIYLASYLESGVPARFSGSGSGTDFTLTISSLEPEDFAVYYCQHSRDLPLTFGGGTKVEIKRTVAAPSVFIFPPSDEQLKSGTASVVCLLNNFYPREAKVQWKVDNALQSGNSQESVTEQDSKDSTYSLSSTLTLSKADYEKHKVYACEVTHQGLSSPVTKSFNRGEC
heavy: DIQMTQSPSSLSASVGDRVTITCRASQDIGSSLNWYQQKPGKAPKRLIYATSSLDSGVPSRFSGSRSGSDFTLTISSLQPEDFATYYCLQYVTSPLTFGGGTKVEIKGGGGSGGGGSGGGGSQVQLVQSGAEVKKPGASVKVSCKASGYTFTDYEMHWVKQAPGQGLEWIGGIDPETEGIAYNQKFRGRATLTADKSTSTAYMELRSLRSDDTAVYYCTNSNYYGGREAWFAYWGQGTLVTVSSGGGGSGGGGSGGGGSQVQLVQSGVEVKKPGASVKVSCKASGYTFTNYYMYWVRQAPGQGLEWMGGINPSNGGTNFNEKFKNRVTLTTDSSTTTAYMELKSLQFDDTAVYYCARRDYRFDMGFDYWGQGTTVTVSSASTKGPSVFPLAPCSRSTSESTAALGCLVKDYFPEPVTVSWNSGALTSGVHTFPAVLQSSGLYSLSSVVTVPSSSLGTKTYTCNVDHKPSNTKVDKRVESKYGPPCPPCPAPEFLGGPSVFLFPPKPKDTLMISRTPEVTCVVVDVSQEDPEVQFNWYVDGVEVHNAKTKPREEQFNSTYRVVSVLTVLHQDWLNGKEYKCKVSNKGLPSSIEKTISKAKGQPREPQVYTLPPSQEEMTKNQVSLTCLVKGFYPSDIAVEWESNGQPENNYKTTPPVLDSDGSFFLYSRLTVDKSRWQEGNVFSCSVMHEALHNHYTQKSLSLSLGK
notes: Ab2317VL-(G4S)3-Ab2317VH-(G4S)3-PemVH-Hc (hIgG4)
B2: the “EC50 (read off the curve)” value with human LAG-3-his [7] was about 0.2 nM; with human PD-1 (hFc/his tag) [16], about 0.1 nM. In addition, the EC50 is 0.293 nM with human PD-1 (hFc/his tag) [8]; 0.179 nM in the assay with human LAG-3-his [9]; 0.128 nM in the assay with human PD-1 (hFc/his tag) [10]; 0.392 nM with human LAG-3-his [11]; 0.227 nM with human PD-1 (hFc/his tag) [12]; 0.298 nM with human LAG-3-his [14]. The EC50 with human LAG-3-his [17] turned out to be 0.298 nM; with human LAG-3-his [18] it was 0.251 nM; in the assay with Bio-LAG-his, 1.09 nM; in the assay with human PD-1 (hFc/his tag) [19], 0.324 nM. The IC50 was determined as 0.268 nM with human PD-1 (hFc/his tag) [13] and 77.5 nM with bio-LAG3-mFc [15].

Usually IC50 stands for the concentration at which inhibition is half-maximal. Higher therefore signals weaker potency. As a reminder, the EC50 is the midpoint of the concentration-response curve. A higher EC50 goes with weaker potency. Usually EC50 (read off the curve) stands for the concentration at which the effect is half-maximal.

(Values after patent US20220340657A1 (L AND L BIO CO LTD NINGBO CHINA, published 2022).)
